A short description of the series: yeast display, Sf9 membrane polyspecificity reagent, FACS + sequencing; frameworks hold sequencing errors. An outline of the steps:
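Synthetic nanobody libraries on Saccharomyces cerevisiae BJ5465 were galactose-induced for 36–48 hours, stained 1 hour at 4 °C with 10% biotinylated, detergent-solubilized Sf9 membrane reagent and enriched on streptavidin microbeads. FACS then separated cells into low and high (top ~1%) gates by anti-HA (expression) and streptavidin (reagent binding) fluorescence. Genes were colony-PCR amplified, MiSeq 2 × 250 sequenced and CDR-length filtered. A clone's polyreactivity label is that of its gate of origin.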
Take “QVQLVESGGGLVQAGGSLRLSCAASGRTFKLYAMGWYRQAPGKERALVAAITESGGSTYYADSVKGRFTISRDNAKNTVYLQMNSLKPEDTAVYYCAAYASAGTRGGYDYWGQGTQVTVSS”: the “polyreactivity (PSR sort gate)” value is “low polyreactivity”.
In the case of “QVQLVESGGGLVQAGGSLRLSCAASGSTIRVNVMGWYRQAPGKERELVAAITTSGGSTYYADSVKGRFTISRDNAKNTVYLQMNSLKPEDTAVYYCNTTYPSGWGPDMDYWGQGTQVTVSS” it was “low polyreactivity”; in that of “QVQLVESGGGLVQAGGSLRLSCAASGRNFGSYAMGWYRQAPGKERELVAGIRSVGSTNYADSVKGRFTISRDNAKNTVYLQMNSLKPEDTAVYYCAARLWHLSYAGQGGDYWGQGTQVTVSS”, “low polyreactivity”; in that of “QVQLVESGGGLVQAGGSLRLSCAASGSTFPYYAMGWYRQAPWKERELVAAIRRRTGSTHYADSVKGRFSISRDNAMNTVYLQMNSLKQEDTAFYYCAADVSYRGNGHGYWGQGTQVNVSS”, “low polyreactivity”.
For “QVQLVESGGGLVQAGGSLRLSCAASGSIFGVNAMGLYRQAPGKERELVASISLSDDRTYYADSVKGRFTISRDNAKNTVYLQMNSLKPEDTAVYYCARRILWYWDVYPSLAEYDYWGQGTQVTVSS”, the “polyreactivity (PSR sort gate)” value was “low polyreactivity”.
For “QVQLVESGGGLVQAGGSLRLICAASGSTFTGYAMGWYRQAPGKERELVAAISISGGRTFYADSVKGRFTISRDNAKNTVYLQMNSLKPEDTAVYYCAAFLRGSKYSFDYWGQGTQVTVSS”, the “polyreactivity (PSR sort gate)” value is reported as “high polyreactivity”.
Take “QFQLVESGGGLVQAGGSLRVSSAASGITLPYYAMGWYRQAPGKDRELVAGISSRGGSTYYADSVKGRFTISRDNAKNTVYLQMNSLKPEDTAVYYCAAKVASTRLGPAYGYWGQGTQVTVSS”: the “polyreactivity (PSR sort gate)” value is given as “high polyreactivity”.
In the case of “QVQPVESGGGLVQAGGSLRLSCAASGRIFGDYAMGWYRQAPGKERELVAAINCSGTSTNYADSVKGRFTISRDNAKYTVYLEMNSLKPEFTAVYYCNAEGTYRPEYDSWVQGTQVTVSS” it was “low polyreactivity”; in that of “QVQLVESGGVLVQAGGSLRLSCAASGFTFYRYDMGWYRQAPVKERELVAAITWSGGSTYYADSLKGRFTISRDNAKNTVYLQMNSLKPEDTAVYDCAAENYDGGFEYWGLGTQVTVSS”, “low polyreactivity”; in that of “QVQLVDSGGGIVQAGGSLRLSCPASGSTFGSYALGWSRQKPGKEREWVAAITSAGSTNYADSVKGRFTISRDNAKNTVYLQMNSLKPEDTAVYYCNDVRYYSYQYDPEVTHRYGYWGQGSQVTVSS”, “high polyreactivity”.
As to “QVQLVESGGGLVQAGGSIRLSCAASGRILYYYVMGWYRQAPGKERELVAAITRGGSTDYADSVKGRFTISRDNAKNTVYLQMNSLKPEDTAVFYCAVPSWPFWVRVEGDYWGQGTQVSVSS”, the “polyreactivity (PSR sort gate)” value was “low polyreactivity”.
Then “QVQLVESGGGLVQAGGSLRLSCAASGSIFDTYAMGWYRQAPGKEREVVAAITWSGSSTYYADSVKGRFTISRDNAKNTVYLQMNSLKPEDTAVYYCAAEVSGKYFLFDYWGQGTQVTVSS”, with “high polyreactivity”; and “QVWLQESGGGLVQACGSLRLRCAASGTISRDIFMGWYRQAPGKEREFVATIAQGGITNYADSVKGRFTISRDNAKNTVYLQMNSVKPGDTAVYYCAARDGNCYWFYYLGQGTQVTVSS”, with “high polyreactivity”.
Then “QVQLVESGGGIVQAGGSLRLSCAASGRTIPPYGMGWYRQAPGKERELVAAISKSSGSTNYADSVKGRVTISRDNAKNTVYLQMNSLKPEDTAVYYCTKEWSIGPTGIRAYVRVWYYYWGQGTQVTVSS”, with “low polyreactivity”; and “QVQLVESGGGLVQAGGSLRLSCAASGRTYVKNAMGWYRQAPGKERELVAAITSGGSTYYADSVKGRFTISRDNAKNTVYLQMNSLKPEDTAVYYCAAAWSSRYVSRYYYWGQGTQVTVSS”, with “high polyreactivity”; and “QVQLVESGGGLVQAGGSLRLSCAASGRTFNFYAMGWYRQAPGKERELVATISGGVSTYYADSVKGRFTISRDNAKNTVYLQMNSLKPEDTAVYYCAKDSGYPQWDLDYWGQGTQVTVSS”, with “high polyreactivity”.
In the case of “QVQLVESGGGLVQAGGSLRLSCAASGSTLGVNAMGWYRQAPGKEREFVAAITGRGGNTYYADSVKGRFTISRDNAKNTVYLQMNSLTPEDTAVYYCAARDKYTRYQSILDYYYWGQGTQVTVSS” it was “high polyreactivity”; in that of “QVQLVESGGGLDQAGGSLRLTCAPYGLISDRNAIGWYRQAPGKERDLVASIRSGGSTYYADSVKGRFTFSRDNAKNTVYLEMNSLKPEDTAVYYCAAGGGHTPVSYYLVPYMDYWGQGTQVTVAS”, “low polyreactivity”; in that of “QVQLVESGGGLVQAGGSLRLSCAASGLIFVVYAMGWYRQAPGKERELVAAISRSGGRTYYADSVKGRFTISRDNAKNTVYLQMNSLKPEDTAVYYCAARRYSTTFGRLFDYWGQGTQVTVSS”, “high polyreactivity”.
As to “QVQLVESGGGLVQAGGSLRLSCAASGRTFARNAMGWYRPAPGKERELVAAITGRGGSTHYADSVKGRFTISRDNAKNTVYLKMNSLKPEDTAVYYCAADYRYNRGSTSNKDYDYWGQGTQVTVSS”, the “polyreactivity (PSR sort gate)” value is given as “low polyreactivity”.
In the case of “QVQLLESGGGLVQAGGSLRLSCAASGRTFYRYAMGWYRKAPGKETELVAANSSSGGSTYYADSVKGRFTISRDNAKNTVYLQMNSLKPEDTAVYYCAAQYFLFTTPYRYAPRMGYWGQGTQVTVSS” it was “high polyreactivity”.
In the case of “QVQLVESGGGLVQAGGSLRLSCAASGAIFVAYAMGWYRQAPGKDRELVAAITYSAGSTYYADSVKGRFTISRDNAKNTVYLQMNSLKPEDTAVYYCAADALVYSFIGYEYWGQGTQVTLSS” it was “low polyreactivity”; in that of “QVKLVESGGGLVQAGGSLRLSCAASGSTFYHNAIGWYRQAPGKERELVARITRGGSTDYADSVKGRFTISRDNAKNTVYLQMNSLKPEDTEVYYCAADIGHFERFYWGQGTQVTVSS”, “low polyreactivity”.
Consider “QVQLVESGGGLVQAGGSLRLSCAASGRIFEVYAMGWYRQAPGKERELVAAITSSGGSRTYYADSVKGRFTISRDNAKNTVYLQMNSLKPEDTAVYYCNDYGGRWIGGRRAYRYNYWGQGTQVNVSS”, for which the “polyreactivity (PSR sort gate)” value was “high polyreactivity”.
Then “QVQLVESGGGLVQAGGSLRLSCAASGRIFPSNAMGWYRQAPGKERELVAAISFSGGSTYYADSVKGRFTISRDNAKNTVYLQMNSLKPEDTAVYYCAKSGVVDWGQGTQVTVSS”, with “low polyreactivity”.
Consider “QVQLVESGGGLVQAGGSLRLSCAASGFTFRRYDMGWYRQAPGKERELVATINRGGSTDYADSVKGRFTISRDNAKNTVYLQMNSLKAEDTAVYYCATRYYSSRTWSEYYYWGQGTKVTVSS”, for which the “polyreactivity (PSR sort gate)” value is given as “high polyreactivity”.
Then “QVQLVESGGGLVQAGGSLRLSCAASGSIFDGYAMGWYRQAPGKETELVARITWSGGSTYYADSVKWRFTISRDNAKNTVYLQMNSLKPEDTAVYYCNVDQVHPTRGLDYWGQGTQVTVSS”, with “low polyreactivity”; and “QVQLVDSGGGLVQAGGSLRLSCAASGSTFPSNAMGWYRQAPGKERELVASIDRGGSTNNADSVKGRFTISRDNAKNTVYLQMNRLKPEDTAVYYCAAKRWPYWDISVYYWGYDYWGQGTQVTVSS”, with “low polyreactivity”; and “QVQLVESGGGLVQAGGSLRLSCAASGLTFTTYTMGWYRQAPGKERELVAAISSRGGSTYYADSVKGRFTISRDNAKNTVYLQMNSLKPEDTAVYYFNAPRPHRMDWGQGTQVTVSS”, with “high polyreactivity”.
Then “QVQLVESGGGLVQAGGSLRLSCAASGGILHYYAMGWYRQAPGKERELVAAISWSGGSTYYADSVKGRFTISRDNAKNTVYLQMNSLKPEDTAVYYCNKVGVAYIFGWMDYWGQGTQVTVSS”, with “high polyreactivity”; and “QVQLVESGGGLVQAGGSLRLSCAASGFTFSVNAMGWYRQAPGKERELVAAITRSGGRTYYADSVKGRFTISRDNAKNTVYLQMNSLKPEDTAVYYCATPRSRTDGYDYWGQGTQVTVSS”, with “high polyreactivity”.
Turning to “QVQLVESGGGLVQAGGSLRLSCAASGRNLIAYAMGWYRQAPGKEREFVAAIRADDGRTYYADSVKGRFTISRDNAKITVYLQMTSLKPEDTAVYYCAAEWYWLHSWFDYWGQGTQVTVSS”, the “polyreactivity (PSR sort gate)” value is “high polyreactivity”.
Then “QVQLVESGGGLVQAGGILRLICDASGFIIGYYAMGWYRQAPGKERELVAAISKSGGRTRYADSVKGRFTISRDNAKNTVYLQMNSLKPEDTAVYYCATYDPARSTQGYDYWGQGTQVTVSS”, with “high polyreactivity”; and “QVQLVESGGGLVQAGGSLRFSCDASGRSFYINAMGWYRQAPGKERELVAAITWSGGRTYYADSVKGRFTISRDNAKNTVYLQMNSLKPEDTAVYYCNTRSYSFYVPYRYDYWGQGTHVTVSS”, with “high polyreactivity”; and “QVQLVESGGGLVQEGGSLRLSCAASGSNFKRNTMGWYRQAPGKERELVAAISASGGRTYYADSVKGRFTISRDNAKNTVYLPMNSLKPEDTAVYYCNARFRIGRSELDYWGQGTQVTVSS”, with “low polyreactivity”.
Then “QVQLVESGGGLVQAGGSLRLSCAASGSTITHNAMGWYRQAPGKERELVATISSGGSTNYADSVKGRFTISRDNAKNTVYLQMNRLKPEDTAVYYCAKPRYRSHVVYGPASGDDYWGQGTQVTVSS”, with “low polyreactivity”; and “QVQLVESGGGLVQAGGSLRLSCAASGSTFSWYVMGWYRQAPGKERELVAAITRGGGSTYYADSVKGRFTISRDNAKNTVYLQMNSLKPEDAAVYYCNADPGFRSGDYGYSSFDYWGQGTQVTVSS”, with “low polyreactivity”.
Then “QVQLVESGGGIVQAGGSLRLSCAASGITFTVYAMGWYRQAPGKERELVAAITSTGSTNYADSVKGRFTISRDNAKNTVYLQMISLKPEDTAVYYCAADRQITVYAYDYWGHGTQVTVSS”, with “low polyreactivity”; and “QVQLVESGGGLVQAGGSLRLICAASGSTFGVNAMGWYRQAPGKERELVAVITRSGGSTYYADSVKGRFTISRDNAKNTVYLEMNSLKPEDTAVYYCAKSGVVDWGQGTQVTVSS”, with “low polyreactivity”.
On to “QVQLVESGGGLVQAGGSLRLSCAASGFYYYVMVWYRQAPGKERELVAGITASGGSTYADSVKGRFTISRDNAMYTVYLQMNSLKPEDTAVYYCAAGFVGTNYTLHGFSYEYWGQGTQVTVSS”, for which the “polyreactivity (PSR sort gate)” value was “low polyreactivity”.

The values are drawn from the nanobody polyreactivity screen of Harvey et al. (2022).
